Here are results for three molecules from patent US20130142806A1 (Eli Lilly, published 2013).

Numbering of substitutions follows the chain as printed. Names may count otherwise. Square brackets hold non-standard residues; d marks the D form. pGlu = O=C1CC[C@@H](C(=O)O)N1

Sequences and labels used below:
T1: pE3-16 (Pyr-…-biotin) (human)
T1 construct: also called pE3-16B
T1 peptide: [pGlu]FRHDSGYEVHHQK-biotin

B1: Antibody II (R17L) (antibody, human IgG1, kappa, V domains shown)
VH: QVQLVQSGAEVKKPGSSVKVSCKASGYTFTRYYINWVRQAPGQGLEWMGWINPGSGNTKYNEKFKGRVTITADESTSTAYMELSSLRSEDTAVYYCAREGTTVYWGQGTTVTVSS
VL: DIVMTQTPLSLSVTPGQPASISCKSSQSLLYSRGKTYLNWLLQKPGQSPQLLIYAVSKLDSGVPDRFSGSGSGTDFTLKISRVEAEDVGVYYCVQGTHYPFTFGQGTKLEIKR
notes: Human engineered anti-N3pGlu Aβ monoclonal antibody
B2: Antibody VII (mE8c) (antibody, mouse IgG2a, kappa, V domains shown)
VH: EVQLLESGPELVKPGASVKISCKASGYTFTDYYINWVKQRPGQGLEWIGWINPGSGNTKYNEKFKGKATLTVDTSSSTAYMQLSSLTSEDSAVYFCTREGETVYWGQGTTLTVSS
VL: B1 VL with D1N, M4L, S10T, P15I, K44R, Q50K, L51R, S68I, V88L, Q105S
notes: Mouse IgG2a isotype of the mE8 clone; also called mE8c - IgG2a; parental mouse antibody
B3: Antibody I (B12L) (antibody, human IgG1, kappa, V domains shown)
VH: B1 VH with T28D, T101I
VL: B1 VL
notes: as for B1

T2 sequence (P05067 672-711 limits assumed): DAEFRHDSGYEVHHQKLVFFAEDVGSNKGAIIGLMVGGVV

The first assay addresses T1, pE3-16 (Pyr-…-biotin). Description: SPR (BIACORE 2000), antibody captured, peptide injected. A general note: In SPR one partner is held on a chip, and binding of the other changes the refractive index at the surface.
For B1, the binding result is listed as “binds”.

As to B2, the binding result is reported as “binds”.

B3: the binding result is reported as “binds”.

The next assay concerns the target T2, Aβ1-40 (UniProt P05067 672-711).
T2 construct: domain: Aβ1-40; The numbers 1-40 count on the Aβ peptide, not on the APP precursor
The description is as above.
With B1, the binding result is reported as “no binding”.

Turning to B2, the binding result is given as “no binding”.

With B3, the binding result is reported as “no binding”.
